The record followed here is PMC2906495, “A kinesin motor in a force-producing conformation” (BMC Structural Biology, 2010).

Series [1] addresses microtubules (polymerized tubulin).
Series [2] concerns the molecule itself. As to the kind of experiment: crystal structure; NcdT436S at 4.5 mg/ml incubated with 4 mM MgCl2 and 4 mM ATP, hanging drops at room temperature, 11.5% PEG 8K, 25 mM sodium-phosphate pH 6.26, 0.5 M NaCl; molecular replacement with PDB 1N6M; two chains (A, B) joined by the coiled-coil stalk.

B1: GST/NcdT436S (GST-…-K210-K700) (domain or fragment)
chain: SDLVPRGSPVKTKYEKQTEDMGELESMPQQLEETQNKLIETESSLKNTQSDNECLQRQVKQHTAKIETITSTLGRTKEELSELQAIHEKVKTEHAALSTEVVHLRQRTEELLRCNEQQAAELETCKEQLFQSNMERKELHNTVMDLRGNIRVFCRIRPPLESEENRMCCTWTYHDESTVELQSIDAQAKSKMGQQIFSFDQVFHPLSSQSDIFEMVSPLIQSALDGYNICIFAYGQSGSGKTYTMDGVPESVGVIPRTVDLLFDSIRGYRNLGWEYEIKATFLEIYNEVLYDLLSNEQKDMEIRMAKNNKNDIYVSNITEETVLDPNHLRHLMHTAKMNRATASTAGNERSSRSHAVTKLELIGRHAEKQEISVGSINLVDLAGSESPKTSTRMTETKNINRSLSELTNVILALLQKQDHIPYRNSKLTHLLMPSLGGNSKTLMFINVSPFQDCFQESVKSLRFAASVNSCKMTKAKRNRYLNNSVANSSTQSNNSGSFDK
For the molecule B1, in series [1], the K (m,MTs) of the microtubule-stimulated steady-state ATPase (0.5 μM motor, 1 mM MgATP, 0-2.5 μM microtubules) turned out to be 1.3 µM.

B2: wild-type GST/Ncd (GST/MC1) (domain or fragment)
chain: KTKYEKQTEDMGELESMPQQLEETQNKLIETESSLKNTQSDNECLQRQVKQHTAKIETITSTLGRTKEELSELQAIHEKVKTEHAALSTEVVHLRQRTEELLRCNEQQAAELETCKEQLFQSNMERKELHNTVMDLRGNIRVFCRIRPPLESEENRMCCTWTYHDESTVELQSIDAQAKSKMGQQIFSFDQVFHPLSSQSDIFEMVSPLIQSALDGYNICIFAYGQTGSGKTYTMDGVPESVGVIPRTVDLLFDSIRGYRNLGWEYEIKATFLEIYNEVLYDLLSNEQKDMEIRMAKNNKNDIYVSNITEETVLDPNHLRHLMHTAKMNRATASTAGNERSSRSHAVTKLELIGRHAEKQEISVGSINLVDLAGSESPKTSTRMTETKNINRSLSELTNVILALLQKQDHIPYRNSKLTHLLMPSLGGNSKTLMFINVSPFQDCFQESVKSLRFAASVNSCKMTKAKRNRYLNNSVANSSTQSNNSGSFDK
B2 had a K (m,MTs) of the microtubule-stimulated steady-state ATPase (0.5 μM motor, 1 mM MgATP, 0-2.5 μM microtubules) in series [1] of 1.6 µM.

B3: NcdT436S, nonfusion protein for crystallization (MGSM-H293-K700) (domain or fragment, Drosophila)
chain: MGSMHAALSTEVVHLRQRTEELLRCNEQQAAELETCKEQLFQSNMERKELHNTVMDLRGNIRVFCRIRPPLESEENRMCCTWTYHDESTVELQSIDAQAKSKMGQQIFSFDQVFHPLSSQSDIFEMVSPLIQSALDGYNICIFAYGQSGSGKTYTMDGVPESVGVIPRTVDLLFDSIRGYRNLGWEYEIKATFLEIYNEVLYDLLSNEQKDMEIRMAKNNKNDIYVSNITEETVLDPNHLRHLMHTAKMNRATASTAGNERSSRSHAVTKLELIGRHAEKQEISVGSINLVDLAGSESPKTSTRMTETKNINRSLSELTNVILALLQKQDHIPYRNSKLTHLLMPSLGGNSKTLMFINVSPFQDCFQESVKSLRFAASVNSCKMTKAKRNRYLNNSVANSSTQSNNSGSFDK
notes: N-terminal leader of the construct MGSM-H293-K700; kinesin-14 Ncd of Drosophila, residues H293-K700 (part of the coiled-coil stalk, neck, motor domain and C-terminus), with T436S in the P-loop; The printed mass of 93,692 Da fits two chains (dimer); In the crystal, chain A is visible from M292 to K671 and chain B from G290 to K674; also called kinesin-14 Ncd T436S; source: E. coli BL21(DE3)pLysS …
As for B3, the binding result in series [2] is on record as “binds”.
